Experimental findings from publication PMC9994480, “Infancy‐onset diabetes caused by de‐regulated AMPylation of the human endoplasmic reticulum chaperone BiP” (EMBO Molecular Medicine, 2023) are described below.

The series deals with the molecule itself. The series can be described thus: SEC; analytical SEC, Agilent Bio SEC-3 HPLC column, TNT buffer (25 mM Tris pH 8.0, 150 mM NaCl, 1 mM TCEP), 25°C; proteins diluted to a range of concentrations (Fig 3B) and incubated at least 1 h at room temperature; 0.3 ml/min.

Substitutions are numbered along the chain they refer to. In names and notes the source's numbering stands.

B1: wild-type FICD, structured luminal domain (residues 104–445) (enzyme, human, UniProt Q9BVA6 104-445, looked up)
chain: LEARAALNQALEMKRQGKREKAQKLFMHALKMDPDFVDALTEFGIFSEEDKDIIQADYLYTRALTISPYHEKALVNRDRTLPLVEEIDQRYFSIIDSKVKKVMSIPKGNSALRRVMEETYYHHIYHTVAIEGNTLTLSEIRHILETRYAVPGKSLEEQNEVIGMHAAMKYINTTLVSRIGSVTISDVLEIHRRVLGYVDPVEAGRFRTTQVLVGHHIPPHPQDVEKQMQEFVQWLNSEEAMNLHPVEFAALAHYKLVYIHPFIDGNGRTSRLLMNLILMQAGYPPITIRKEQRSDYYHVLEAANEGDVRPFIRFIAKCTETTLDTLLFATTEYSVALPEAQP
notes: human FICD, structured region, residues 104-445; The methods say His6-SUMO fusion (cleaved by Ulp1) or GST fusion (cleaved by TEV) without telling which for which protein; Purification as in Perera et al, 2019, 2021; also called WT; FICD^WT; not shown: His6-SUMO (or GST)
For B1, the “stoichiometry N” value amounted to 2.

B2: FICD^R371S, structured luminal domain (residues 104–445) (enzyme, human, UniProt Q9BVA6 104-445, looked up)
chain: B1 chain with R268S
notes: human FICD, structured region, residues 104-445, with the patients' variant p.(Arg371Ser); Variant found homozygous in patients (NM_007076.2:c.1113G>C); also called Arg371Ser mutant FICD; FICD p.(Arg371Ser); not shown: His6-SUMO (or GST)
As to B2, the “stoichiometry N” value amounted to 2.
